Results from US20260274955A1 (JANUX THERAPEUTICS, published 2026).

Columns and labels:
[1] = target: T1, Anti-CD28 Fab (SEQ ID NOs: 202, 203); test: phage ELISA, Fab on plate, CD28 antigen as competitor
T1 construct: biotinylated and captured on neutravidin coated plates in the phage ELISA
Experimental: After panning, phage infected bacteria were plated out and colonies picked into 96 well blocks. Clonal phage was then amplified and separated from bacterial cells via centrifugation.
Clonal phage were harvested as crude supernatants and screened via standard ELISAs. […] Prior to the addition of clonal phage, wells were incubated with blocking buffer and CD28 antigen or blocking buffer alone. Without washing or aspirating, clonal phage supernatants were then added to the wells and incubated for a short time. Wells were then washed followed by detection of bound phage using a horse radish conjugated anti-M13 antibody. Clonal phage of interest were then sent for sequence analysis.

[2] = target: T1, Anti-CD28 Fab (SEQ ID NOs: 202, 203); test: phage ELISA, Fab on plate;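 also: crude clonal phage supernatants added to wells pretreated with blocking buffer with or without CD28 antigen, then bound phage read out via HRP-linked anti-M13 antibody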

T1 sequence (VH, as listed by the source, chain 1 of 2): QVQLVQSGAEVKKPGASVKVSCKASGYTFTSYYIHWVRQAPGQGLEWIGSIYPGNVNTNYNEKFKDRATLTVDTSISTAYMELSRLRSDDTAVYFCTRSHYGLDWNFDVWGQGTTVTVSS
T1 sequence (VL, as listed by the source, chain 2 of 2): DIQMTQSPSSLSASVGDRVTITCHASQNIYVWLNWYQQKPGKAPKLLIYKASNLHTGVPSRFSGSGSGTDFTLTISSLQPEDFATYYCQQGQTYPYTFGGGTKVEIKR

Row | Binder | Anti-CD28 Fab signal in the presence of CD28 [1] | Anti-CD28 Fab (SEQ ID NOs: 202, 203) signal [2]
1 | YCDGHLEQYMLKCL [Phage-692] | 0.09 | 1.24
2 | YCEGHAQEYMAKCL [Phage-744] | 0.08 | 1.06
3 | YCDGHLSVYMSKCL [Phage-718] | 0.07 | 1.15
4 | YCDGHSWEYLGKCL [Phage-703] | 0.05 | 1.2
5 | YCEGHAAEYLWKCL [Phage-705] | 0.09 | 1.18
6 | YCEGHLKEYMQKCL [Phage-714] | 0.07 | 1.17
7 | YCAGHAPEYISKCL [Phage-702] | 0.07 | 1.21
8 | YCEGHLWEYMKKCL [Phage-748] | 0.07 | 1.06
9 | YCVGHYPEYMEKCL [Phage-697] | 0.07 | 1.22
10 | YCEGHAEQYMEKCL [Phage-713] | 0.08 | 1.17
11 | YCDGHSWIYMVKCL [Phage-717] | 0.06 | 1.16
12 | YCDGHAPIYMQKCL [Phage-747] | 0.06 | 1.06
13 | YCDGHVEEYMTKCL [Phage-691] | 0.07 | 1.24
14 | YCVGHLPEYMLECM [Phage-739] | 0.07 | 1.08
15 | YCEGHRAEYMSKCL [Phage-716] | 0.09 | 1.16
16 | YCAGHSSEYIGKCL [Phage-710] | 0.06 | 1.17
17 | YCEGHIGIYMSKCL [Phage-693] | 0.07 | 1.23
18 | YCHGHLPQYMSKCM [Phage-700] | 0.06 | 1.21
19 | YCDGHANAYIWKCL [Phage-742] | 0.09 | 1.07

Row | Binder | Anti-CD28 Fab signal in the presence of CD28 [1] | Anti-CD28 Fab (SEQ ID NOs: 202, 203) signal [2]
20 | YCEGHSAEHMPKCL [Phage-696] | 0.09 | 1.23
21 | YCEGHSEMYMSKCL [Phage-741] | 0.09 | 1.07
22 | YCDGHSFHYMAKCL [Phage-740] | 0.06 | 1.08
23 | YCDGHEARYMQKCL [Phage-698] | 0.07 | 1.21
24 | YCDGHAMEYMEKCL [Phage-733] | 0.08 | 1.11
25 | YCEGHIPAYMAKCL [Phage-746] | 0.08 | 1.06
26 | YCAGHAEEYMLKCL [Phage-737] | 0.07 | 1.09
27 | YCDGHSMMYMQKCL [Phage-695] | 0.06 | 1.23
28 | YCEGHSTEYIQKCL [Phage-694] | 0.09 | 1.23
29 | YCEGHLWEYLAKCL [Phage-734] | 0.05 | 1.1
30 | YCEGHLPQYMSKCL [Phage-719] | 0.09 | 1.15
31 | YCDGHAKVYIWKCL [Phage-745] | 0.08 | 1.06
32 | YCAGHLDIYLAKCL [Phage-701] | 0.07 | 1.21
33 | YCEGHIPMYMLKCM [Phage-743] | 0.09 | 1.06
34 | YCEGHMGEYMLKCL [Phage-735] | 0.06 | 1.1
35 | YCEGHMPEYLAKCL [Phage-707] | 0.07 | 1.18
36 | YCDGHRPEYMSKCL [Phage-706] | 0.07 | 1.18
37 | YCDGHSQEYMSKCL [Phage-699] | 0.06 | 1.21
38 | YCEGHAGVYMAKCL [Phage-708] | 0.05 | 1.17
